{"source": "paper PMC6050537", "about": "“Inhibition of low-density lipoprotein receptor degradation with a cyclic peptide that disrupts the homodimerization of IDOL E3 ubiquitin ligase” (Chemical Science, 2018)", "key": {"[1]": {"molecular_target": "Full length IDOL (1–445) (UniProt Q8WY64)", "test": "MST; as a6 but in the presence of RINGpep2 (100 μM); apparent; homodimer to monomers"}, "[2]": {"molecular_target": "Full length IDOL (1–445) (UniProt Q8WY64)", "test": "MST; increasing concentrations of unlabelled IDOL titrated into a 45 nM solution of dye-labelled IDOL; homodimer to monomers"}}}
{"substance": "Full length IDOL (1–445) (from UniProt Q8WY64 1-445) (enzyme)", "values": [{"measurement": "apparent KD in the presence of RINGPep2 (100 μM)", "setting": "[1]", "value": 11.1, "unit": "µM"}, {"measurement": "Kd", "setting": "[2]", "value": 2.9, "unit": "µM"}]}
